# Measurements published in patent US20240245805A1 (Orna Therapeutics, Inc., priority 2020, published 2024).
# Test system: HEK293 cells
# Assay type: cell-based, human
# Details: circular RNA encoding Gluc with the listed IRES (UTR truncated to 675 nt) transfected into HEK293 cells; supernatant after 24 hours
row,Molecule,Expression (luminescence from secreted Gluc protein)
1,"Turkey Gallivirus M176 (nucleic acid, listed as Gallivirus sp., lipid formulation) DNA: CCACTCGCACTTCCTGGATAGTGCGTTAGATATGCCCGACATATCGCTTCCAGGACCAAAGCCCCCCTTTTCTCTTTCCCAACCAGCTTCGCCACTCAAGCTGTAATTCCATGTCCGGTCTTTCCGGCCTTAGTATCATGGAAATGTGGTCGTGCTCAAATGAAATTGAGTTGACATTGATCAATGAAAGTTGCACTGAACTTTGCTAAACTGGCTAGCGCCACCTGGTGTGTGCCGTTGGTCTCCTCACATGGTAACATGTGCCAACGGGCCCGAAAGGCTAGTGGGCAATTACCGCTCCAAGGGAGGGGTACCCACCCCGACCTGAACAGCGGTAATGAAGCTCACCTCCCAGGCTCTGACCCCGAGAAGTTTAGTTATTTAGTAGGTGTAATTAGTACTTGTGATTGGTCAATTTGATAGTAGTTTGAAACGTTATGGATGAATGAGTAGACCCCCTGAAGGTACCCCATTACATGGGATCTGATCAGGGCCACATTCTGCGTGTCTCCCCGCACTTGTGGTTAAAACCATGAAAGTTCATCCCAAACAATCTTTTCCTCTTCTTTTTCTTTTAGTGGTGACAACCTACTGGATTGGTGATTACCAATCTGTACTAGTGTTGTATTAAGACTTGTTGTGTGGAGAAAATGGACTCTTTCAAGAAGATTTTTG",4.37E+05
2,"Tremovirus B (nucleic acid, Tremovirus B) DNA: TTCAAATGGCCCCTGGGTTGATACCCAGTGGTCATTTGGACACTTTGGTAAGGAGGTGTAATTATCCTTCCCATGTGGAACCTAGTGCTTAGGTTTACTTTATATGTTCTTTGTTTGTCCTTTGTACTTTCTATCGGGCAATCTTGTTGTTCAATACAATATGTATTTGAACTGCCTAAGATAAATTCAGTTTTCAACCAACCCCTCTCTTGGGGTTGTGTCTTTCTTTCTTTCTTATATCCTCTTAAGCTGACTTACTTGCTAATCCGACTCCTCGTCAACGGGAGGGTAAAGCAGTATCACTAGGGTATTGTGATGTAGGAGAAAAAGTAAGTAGAGATAGTGCATGTAACGAAAGTGACTTGGTACTTTAAACTCTCTTAATCCCAAAGTGTGGTATTGGTCATGTTGGAGTAGGCTACGGGTGAAACTCCTTCACATTTAGTAATGTGTTCACACGCTAACGCTACGGTAGATGACAGACTAGGTCTTATTCTCAACGTAGGGGGACGGGTGTATGTTCATGATTAGCCACATATTAAGGTTTTGAGGGGCTGAGTCATATAAGTATGTGCATTAATTTCTGGTACTGGTCCCTGGGGACTGGCCCTTTTCTAGGTTGATTTTAGTTTCCCCAATTTTTAAAAACTAATGAGATTTACGAC",1.31E+05
3,"Yancheng osbecks grenadier anchovy picornavirus (nucleic acid, lipid formulation; source: /note=""Description of Unknown: Yancheng osbecks grenadier anchovy picornavirus sequence"") DNA: CCTTAGGGTCTGGAATGCGTCCTTTCTGGGCACTTCCACAATCCTAAGGTAATTTTCAACGCCAGCGATGGAGCGATATCCAAAGAACCTTTATGTTTTAGTTCGTCTTGTATGTTTATAAAATATAAAATTGGGATTAGCAACCCACAAAAACATTTTTGTTATTCTCACCACATGAGAGGGTGGTTAAACCTCTTCGTAACCTATCTTGCTTGATTGGCTACTTGGGCTAGATTTAGGACAACCTCTTTAGCAAGCCTAAATTACTCCTCGTACTTGCACCTGGTAACAGGCGTACCTGGAGGTTACGGTGGCGCTAACTTGGACTTCTCGTTAATTCGTGCAAGTTTAAATGATGCCTATTTTGAATACAAGAAAGTATGATAGTAACTTAGGGCGTGAAGTTCCGCTTAACATAAGGCAGTATAAGTACTAAGATAAGGTGTAAGACCTACCTTAATAACTGTTGTCTTTTCTCATGGTCTTTCCGTGGGAGCCCTTGCTAGGGGTAAAGTTAAGTATTCTCAAATAATTTTTCATTCAAACTCTTTCTCTCTGTTTT",1.57E+06
4,"Hepatovirus D (nucleic acid, Hepatovirus D) DNA: CTTTGGATGCCCATAGTGCGGGGGTATAAATACCGCACTCCCTTTAGCTGTTCCGAGGGTATCGGAACCTATATGTTTGTTTTCTGTCTGTCTGTCAGCTTTATGTGTGCTCGTCCCCTTTAGGGCACTCATTTCAGCTTGCTTTCATTCTTTTCTTCCCCGGTTCTCACCTTACCGGAGGCACTGGCCGTTGCGCCCGGCGGGGTCAACCTAGTGATTAGCACTAGGCTGTAGGTGTCTAAAGTGGTGACATTAAGACTTGGTAACTGATTTCAGCACTGTTAACTGATGTTGGGGATGACTTGATTGATCTTCTGGAAGGGGTAGGCTACGGGTGAAACCCCTTATCTTAATACCACTATGTAGAGATAGATTCAGTAGGTTAAGGGCAGTGGATAAGGTTGAGTTCATTTTGGACAATAAACCTTCAACACTGGTGGACCCAATCTCACTGACCAGATGCTTTCTTGACTGATCCTTCAGAGGGGTGATTCTTCTGAATAGGTTGCCTTGACACTGATGCCTGAGACCCATTGGGTCGGGCCTTAAATCATGGAACTCCACTGGACTTTCATGGCCTAGCTTCTGCCTTAGACAGACTCTGGGGCCCCACGACCCTCTGGGCCCTTCGGGGTACTCAGGGGCATTTAGGTTTTTCCACAATTAAAAGAGTTA",1.47E+06
5,"Hepatovirus G1 (nucleic acid, listed as Hepatovirus sp.) DNA: GCAAGGGGTGGTTTTAACCTTGCACGCGTTTACCGTGCGTTAACGGTTTTCCATGTTTGTATGTCTTGTTTGTATTATGTGTTTTGTAAATATTAATTCCTGCAGGTTCAGGGTTCTTTAATCATGTTGGGCTGTACCCACACTCAACTTTTGGCCATAAGTGAGTTTCTTAACGAACCTTTTAACACAGGATGTTATTAGGGCCCAATATTTTCCCTGAGGCCTTCTTTGGCCTCTATTTTTTCCCCTTTTCTATCTCCTTGTATTCCGGGCTCACGTGATGCCAATGGACTGACCCATGCGCCCGTGGGGGTTAACTACTGGAGTAGCCAGTAGCTGTAGGTGCTAAAAGTCACGTACGTGTAAGACTGGACGAGACCTCTCAGCTATAACTGAAAGTAGTAAGTATGTCTGAACTTCTTGAAGGGGTAGGCTACGGGTGAAACCCCTTAGGTTAATACTCATATTGAGAGATACCTCTGATAGGTGAAGGTTTCCGGTAGAGGTGAGTTTAACGACAAAGCCTCTCAACGGATGTGGGCCCACCTCATCAGCAAGATGCTTTCATACCCAATACCGTAGGGGCTGGGTTGTTGAGTTCAGTCCCAAGCGTCCCTCCCGCAAGGTTGTAGGGGTACTCAGGGGCATTTAGGTTTCCACAATTAAACAAATACA",1.41E+05
6,"Grusopivirus B (nucleic acid, lipid formulation; Grusopivirus B) GCCATCCGTAGGTTCTGGTAAGGTTCCATCAACTGTTGGGGCGCTAGTTGCTATGACCGCATTCACGGACGGATGATTTATAGTATCACCCAATCCGGGCACAACTTCTTTAGCCACTTCTTCCACATTACTAAGGGCTCTCTTGCCGAGTTTCAACGTCTAGTCCACGACACGGACCTTCCTACTTTTCTATCTTCTTATTTTCTCTACTAAATTGGTATCTGGTACTGAAGATATGCGGATTGTGATTTTGTGCCTGTCTAAACTAACCCTATTCTAGGGTTAGGTGGGTACCATATACTAATGGTGAACAGGATTACCTATGTATCCATTAGTCCCTATGGATCTGGCGACCCACAAACTCATGTTCATAGAGAGGCTAAGCTGAGTGCTCGCCGAATAAGCATTGCTTCAGGTGCCGACTATTGTCTGGAAACCACTCAGTGATAGCTATAGGGGGGGGCCCCGTAGCATCTGCCTTACTGCCTGATAGGGTGGCGGCTGGTCCATGAACATGCAGTAACCAGTTGACTTGAC",2.12E+05
